Test results reported in paper PMC8059821.

Biological target: hACE2-NN-Fc 5mut (human) (UniProt Q9BYF1)
Experiment: SPR

Substance: soluble monomeric SARS2-RBD (from UniProt P0DTC2) (domain or fragment)
- Kd: 5.45 nM
